Measurements as given in the supplement of paper PMC7125110.
± gives the standard error. For some assays here: Variants at the floor of the assay were thinned out.

B1: glmS ribozyme (parent)
chain: AUAAAAGCGCCAGAACUACAGAAAUGUAGUUGACGAGGAGGAGGUUUAUCGAAUUUUCGGCGGAUGCCUCCAAA

Key:
Conditions in all cases: with glucosamine-6-phosphate
glucosamine-6-phosphate [1] = variants of: B1; test: kcat; higher = faster cleavage; RNA array
Method in brief: (§1)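 Tracking of barcoded ribozyme variants used a hybridised Cy3 probe at 37 °C, after in situ transcription by E. coli RNA polymerase on sequenced MiSeq chips. The flowed solution held 40 μM to 10 mM glucosamine-6-phosphate in HEPES/KCl/Mg(OAc)2 buffer, and imaging ran over ~14 h. kobs was taken from exponential decay fits of normalised per-tile medians, and kcat and KM from weighted Michaelis–Menten fits.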

glucosamine-6-phosphate [2] = variants of: B1; test: KM; higher = weaker cofactor use; RNA array
Method in brief: as §1

glucosamine-6-phosphate [3] = variants of: B1; test: self-cleavage kobs at 160 uM GlcN6P; higher = faster cleavage; RNA array
Method in brief: as §1

glucosamine-6-phosphate [4] = variants of: B1; test: self-cleavage kobs at 640 uM GlcN6P; higher = faster cleavage; RNA array
Method in brief: as §1

glucosamine-6-phosphate [5] = variants of: B1; test: self-cleavage kobs at 2500 uM GlcN6P; higher = faster cleavage; RNA array
Method in brief: as §1

glucosamine-6-phosphate [6] = variants of: B1; test: self-cleavage kobs at 10000 uM GlcN6P; higher = faster cleavage; RNA array
Method in brief: as §1

glucosamine-6-phosphate [7] = variants of: B1; test: self-cleavage kobs at 40 uM GlcN6P; higher = faster cleavage; RNA array
Method in brief: as §1

| Variant | kcat (glucosamine-6-phosphate [1]) [s⁻¹] | KM (glucosamine-6-phosphate [2]) [µM] | self-cleavage kobs at 160 uM GlcN6P (glucosamine-6-phosphate [3]) [s⁻¹] | self-cleavage kobs at 640 uM GlcN6P (glucosamine-6-phosphate [4]) [s⁻¹] | self-cleavage kobs at 2500 uM GlcN6P (glucosamine-6-phosphate [5]) [s⁻¹] | self-cleavage kobs at 10000 uM GlcN6P (glucosamine-6-phosphate [6]) [s⁻¹] | self-cleavage kobs at 40 uM GlcN6P (glucosamine-6-phosphate [7]) [s⁻¹] |
| --- | --- | --- | --- | --- | --- | --- | --- |
| A15U C67G | 0.000167 ± 1.9e-06 | 1030 ± 37 | 2.34e-05 ± 1.1e-05 | 6.43e-05 ± 9.7e-06 | 0.000115 ± 1.8e-05 | 0.000153 ± 1.2e-05 |  |
| A15U C67U | 0.00194 ± 0.00074 |  | 0.000161 ± 1.7e-05 | 0.000409 ± 3.4e-05 | 0.00189 ± 0.00029 | 0.00167 ± 0.00023 | 5.32e-05 ± 6.3e-06 |
| A15U A52C | < 1e-05 | 537 ± 110 | < 1e-05 | < 1e-05 |  |  | < 1e-05 |
| A15U A52G | 0.00041 ± 2.6e-05 | 2270 ± 280 |  | 8.94e-05 ± 1.6e-05 | 0.000222 ± 3.6e-05 | 0.000331 ± 4.6e-05 |  |
| A15G G59A | 0.000151 ± 1.1e-05 | 3440 ± 750 |  |  | 6.85e-05 ± 2.3e-05 | 0.000112 ± 1.5e-05 |  |
| A15G G32A C70G | 9.72e-05 ± 1.2e-05 |  | 0.000115 ± 3.5e-05 | 0.000107 ± 2.6e-05 | 7.81e-05 ± 3e-05 | 9.41e-05 ± 1.1e-05 |  |
| A15G A52G | 0.00182 ± 0.00044 | 3750 ± 1400 | 8.59e-05 ± 2.3e-05 | 0.000293 ± 3.7e-05 | 0.000596 ± 8.6e-05 | 0.0015 ± 0.00019 |  |
| A15G A52U | 0.000384 ± 8.3e-05 | 5400 ± 2000 |  | 3.21e-05 ± 7.2e-06 | 0.000147 ± 1.6e-05 | 0.00024 ± 2.3e-05 |  |
| A15G A53U | 0.0369 ± 0.0054 | 2500 ± 470 | 0.0027 ± 0.00073 | 0.00647 ± 0.002 | 0.0176 ± 0.0065 | 0.0306 ± 0.0073 | 0.000575 ± 0.00011 |
| A15G U57G | 9.24e-05 ± 1.1e-05 | 2500 ± 1200 |  |  | 5.11e-05 ± 2.2e-05 | 7.35e-05 ± 1.2e-05 |  |
| A15G U57C | 0.000143 ± 1.4e-05 | 2200 ± 520 |  | 2.79e-05 ± 9.6e-06 | 8.09e-05 ± 1.2e-05 | 0.000113 ± 1.7e-05 |  |
| A15G U55G | 0.0139 ± 0.0046 | 683 ± 310 | 0.00183 ± 0.00047 | 0.00997 ± 0.0026 | 0.0187 ± 0.0059 | 0.0118 ± 0.0027 | 0.000914 ± 0.00013 |
| A15U A48C | 2.45e-05 ± 3.9e-06 |  |  |  |  |  |  |
| A15G C58U | 0.000166 ± 4e-05 |  |  |  | 2.52e-05 ± 1.2e-05 | 7.17e-05 ± 9.6e-06 |  |
| A15G C58A | 0.000835 ± 8.2e-05 | 5240 ± 790 | 2.68e-05 ± 1.2e-05 | 8.63e-05 ± 1e-05 | 0.000303 ± 4e-05 | 0.000537 ± 5.2e-05 |  |
| A15G A36G | 1.79e-05 ± 1.6e-07 | 8450 ± 150 |  |  |  |  |  |
